Reference: patent publication US20020165132A1
Positions of bridges follow the written chain, without caps; N, C: chain ends. Non-standard residues stand in square brackets, D forms with d. No end group written: not given here. AlaL = alanine half of a lanthionine (monosulfide) bridge; Thr(ol) = C[C@@H](O)[C@H](N)CO; dValL = not defined here

B1: H-D-Phe-c[AlaLPhe-D-Trp-Lys-Thr-AlaL]-Thr-ol (peptide)
peptide: H-[dF][AlaL]F[dW]KT[AlaL][Thr(ol)]
modifications: thioether 2-7
B2: Sandostatin (peptide)
peptide: [dF]CF[dW]KTC[Thr(ol)]
modifications: disulfide 2-7
B3: H-D-Phe-c[AlaLPhe-D-Trp-Lys-Thr-AlaL]-OH (peptide)
peptide: H-[dF][AlaL]F[dW]KT[AlaL]-OH
modifications: thioether 2-7
B4: H-D-Phe-c[AlaLPhe-D-Trp-Lys-Thr-AlaL]-Thr-NH2 (peptide)
peptide: H-[dF][AlaL]F[dW]KT[AlaL]T-NH2
modifications: thioether 2-7
B5: Tyr-c[D-AlaL-Gly-Phe-L-AlaL]-OH (peptide)
peptide: Y[dAlaL]GF[AlaL]-OH
modifications: bridge 2-5; not fully specified (bridges); printed as Tyr-c[D-AlaL-Gly-Phe-L-AlaL]-OH
B6: Tyr-c[D-AlaL-Gly-Phe-D-AlaL]-NH2 (peptide)
peptide: Y[dAlaL]GF[dAlaL]-NH2
modifications: thioether 2-5
B7: Tyr-c[D-AlaL-Gly-Phe-L-AlaL]-NH2 (peptide)
peptide: Y[dAlaL]GF[AlaL]-NH2
modifications: bridge 2-5; not fully specified (bridges); printed as Tyr-c[D-AlaL-Gly-Phe-L-AlaL]-NH2
B8: Tyr-c[D-ValL-Gly-Phe-L-AlaL]-OH (peptide)
peptide: Y[dValL]GF[AlaL]-OH
modifications: thioether 2-5; reading uncertain; also: printed as Tyr-c[D-ValL-Gly-Phe-L-AlaL]-OH
B9: Tyr-c[D-ValL-Gly-Phe-D-AlaL]-OH (peptide)
peptide: Y[dValL]GF[dAlaL]-OH
modifications: thioether 2-5; reading uncertain; also: printed as Tyr-c[D-ValL-Gly-Phe-D-AlaL]-OH
B10: Tyr-c[D-ValL-Gly-Phe-L-AlaL]-OMe (peptide)
peptide: Y[dValL]GF[AlaL]-OMe
modifications: thioether 2-5; reading uncertain; also: printed as Tyr-c[D-ValL-Gly-Phe-L-AlaL]-OMe
B11: Somatostatin-14 (peptide, UniProt P61278 103-116, looked up)
peptide: AGCKNFFWKTFTSC
modifications: disulfide 3-14 (inferred)

How the values were obtained:
[1] = target: SSTR2 Receptor (cloned somatostatin receptor); experiment: inhibition of radioligand binding to cloned SSTR2
Sequence of SSTR2 Receptor (cloned somatostatin receptor) (P30875 whole entry): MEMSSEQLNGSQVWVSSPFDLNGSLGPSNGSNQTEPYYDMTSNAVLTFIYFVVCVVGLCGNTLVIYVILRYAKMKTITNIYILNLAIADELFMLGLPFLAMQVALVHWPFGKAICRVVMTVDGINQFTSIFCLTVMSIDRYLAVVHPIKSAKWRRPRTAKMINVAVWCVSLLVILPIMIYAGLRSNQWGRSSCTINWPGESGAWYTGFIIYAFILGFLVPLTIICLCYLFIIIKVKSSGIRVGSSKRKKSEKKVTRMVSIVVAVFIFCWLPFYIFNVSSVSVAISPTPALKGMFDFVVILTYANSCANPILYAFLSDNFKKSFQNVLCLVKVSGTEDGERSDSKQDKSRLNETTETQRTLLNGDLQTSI

[2] = target: SSTR4 Receptor (cloned somatostatin receptor); experiment: inhibition of radioligand binding to cloned SSTR4
Sequence of SSTR4 Receptor (cloned somatostatin receptor) (P30938 whole entry): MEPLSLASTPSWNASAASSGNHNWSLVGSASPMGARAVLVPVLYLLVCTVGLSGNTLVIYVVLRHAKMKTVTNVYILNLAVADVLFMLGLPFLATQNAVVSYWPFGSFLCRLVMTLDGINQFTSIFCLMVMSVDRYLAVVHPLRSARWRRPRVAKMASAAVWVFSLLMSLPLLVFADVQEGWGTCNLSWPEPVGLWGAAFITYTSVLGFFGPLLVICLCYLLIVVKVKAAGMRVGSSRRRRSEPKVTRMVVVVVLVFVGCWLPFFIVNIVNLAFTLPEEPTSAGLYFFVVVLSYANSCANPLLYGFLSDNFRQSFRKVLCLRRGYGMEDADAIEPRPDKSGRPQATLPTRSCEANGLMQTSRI

[3] = target: δ-receptor (mouse vas deferens preparation) (mouse), P32300; experiment: cell-based or functional assay
Sequence of δ-receptor (mouse vas deferens preparation) (mouse), P32300 (P32300 whole entry, stated change not applied): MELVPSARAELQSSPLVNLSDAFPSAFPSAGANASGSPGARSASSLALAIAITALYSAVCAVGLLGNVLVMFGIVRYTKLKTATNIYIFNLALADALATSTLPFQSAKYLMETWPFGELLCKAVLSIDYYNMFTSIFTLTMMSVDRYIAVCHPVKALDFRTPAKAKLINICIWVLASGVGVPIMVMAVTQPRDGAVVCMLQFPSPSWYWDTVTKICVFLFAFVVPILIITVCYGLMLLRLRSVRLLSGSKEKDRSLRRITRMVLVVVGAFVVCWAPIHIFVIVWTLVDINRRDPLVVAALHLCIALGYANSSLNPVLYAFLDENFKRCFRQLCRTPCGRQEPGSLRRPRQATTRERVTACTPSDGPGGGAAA

[4] = target: µ-receptor (guinea pig ileum preparation) (guinea pig); experiment: cell-based or functional assay
[5] = target: δ-receptor (mouse vas deferens preparation) (mouse) (UniProt P32300); experiment: cell-based or functional assay
Sequence of δ-receptor (mouse vas deferens preparation) (mouse) (P32300 whole entry, stated change not applied): as above

Binder	IC50 [1]	IC50 [2]	GPI IC50 [4]	also measured
B1	5 nM	1 nM	–	–
B2	2.4 nM	–	–	–
B3	–	500 nM	–	–
B4	10 nM	0.5 nM	–	–
B5	–	–	–	MVD IC50 [3]: 0.16 nM
B6	–	–	1.67 nM	MVD IC50 [5]: 1.67 nM
B7	–	–	–	MVD IC50 [3]: 0.54 nM
B8	–	–	39 nM	–
B9	–	–	535 nM	–
B10	–	–	88.1 nM	MVD IC50 [5]: 3.65 nM
B11	0.28 nM	0.86 nM	–	–
